# Experimental data published in patent US20110182814A1 (GENERAL HOSPITAL, published 2011).
# Ends that are not written are not given here.
# B1: phage clone 27 displaying the peptide KTLLPTP (SEQ ID NO:1) (peptide)
# peptide: KTLLPTP
# modifications: also: displayed on M13 phage coat protein, phage labelled with FITC or biotin
# notes: Tested as whole labelled phage, not as free peptide; also called FITC-27; PDAC-27; not shown: M13 phage coat protein carrying the 7-mer of the phD7 library (New England Biolabs)
# Legend:
# [1] = target: T1, plectin-1 (mouse, of mouse PDAC cells) (mouse, UniProt Q9QXS1 1-4691); experiment: flow cytometry, fluorescein-labelled phage on mouse PDAC cells against normal ductal cells
# T1 construct: whole, on cells; On intact cells in the pulldown (photo-crosslink) and in flow cytometry; From cell lysate on a blot in the far western and the western; also called 500 kDa band
# Method: (§1) Mouse Pancreatic ductal adenocarcinoma (PDAC) cells, human PDAC cells (i.e. MNA, 8988, SW1990, PaCa-2, ASPC), normal human ductal cells and normal pancreatic cells were incubated with 1 mM (FITC) FITC-labeled phage clone 27 or unrelated phage clone (amino acid sequence SNLHPSD, negative control (SEQ ID NO:XX)) for 1 hour at 37° C., washed 3× with DPBS and visualized by fluorescent microscopy (Nikon Eclipse TE2000-S, Insight QE, 40× objective). The cells were then harvested by incubation with trypsin, centrifuged, and analyzed (10,000 cells/sample) by flow cytometry on a Beckton Dickinson FACSCalibur (San Jose, Calif.). […] Mean fluorescence was plotted against cell number to show relative uptake between cell types.
# Validation of Clone 27 as a PDAC marker (FIG. 1B) was done in experiments described herein, in addition to testing clones 1 (SGVEFLH, SEQ ID NO:4), 9 (SKKDTHH, SEQ ID NO:5), 15 (TMAPSIK, SEQ ID NO:6), 17 (TQHQVTA, SEQ ID NO:7), and 22 (VNDRNVK, SEQ ID NO:8). The phage coat proteins were fluorescein labeled then the extent of phage clone binding and specificity quantified for mouse PDAC and normal ductal cells via flow cytometry (FIG. 1B). […] Phage clone 15 was second in affinity with the remainder having nearly identical specificity.
# [2] = target: human plectin-1 (of human PDAC cell lines) (human, UniProt Q15149 1-4684); experiment: flow cytometry, FITC-labelled phage on PDAC cell lines, average over lines, reference is the FITC-labelled unrelated phage clone
# Method: as §1
# The specificity of Clone 27 for human PDAC cells was evaluated as described in this example. Clone 27 and an unrelated phage clone were labeled with FITC, producing FITC-27 and a FITC-unrelated phage clone (negative control). Mouse PDAC cells as a positive control along with five human PDAC cell lines and with normal human ductal cells were incubated with each type of clone and then uptake of the clone was analyzed via fluorescence-activated cell sorter (FACS).
# Chain of human plectin-1 (of human PDAC cell lines) (Q15149 whole entry): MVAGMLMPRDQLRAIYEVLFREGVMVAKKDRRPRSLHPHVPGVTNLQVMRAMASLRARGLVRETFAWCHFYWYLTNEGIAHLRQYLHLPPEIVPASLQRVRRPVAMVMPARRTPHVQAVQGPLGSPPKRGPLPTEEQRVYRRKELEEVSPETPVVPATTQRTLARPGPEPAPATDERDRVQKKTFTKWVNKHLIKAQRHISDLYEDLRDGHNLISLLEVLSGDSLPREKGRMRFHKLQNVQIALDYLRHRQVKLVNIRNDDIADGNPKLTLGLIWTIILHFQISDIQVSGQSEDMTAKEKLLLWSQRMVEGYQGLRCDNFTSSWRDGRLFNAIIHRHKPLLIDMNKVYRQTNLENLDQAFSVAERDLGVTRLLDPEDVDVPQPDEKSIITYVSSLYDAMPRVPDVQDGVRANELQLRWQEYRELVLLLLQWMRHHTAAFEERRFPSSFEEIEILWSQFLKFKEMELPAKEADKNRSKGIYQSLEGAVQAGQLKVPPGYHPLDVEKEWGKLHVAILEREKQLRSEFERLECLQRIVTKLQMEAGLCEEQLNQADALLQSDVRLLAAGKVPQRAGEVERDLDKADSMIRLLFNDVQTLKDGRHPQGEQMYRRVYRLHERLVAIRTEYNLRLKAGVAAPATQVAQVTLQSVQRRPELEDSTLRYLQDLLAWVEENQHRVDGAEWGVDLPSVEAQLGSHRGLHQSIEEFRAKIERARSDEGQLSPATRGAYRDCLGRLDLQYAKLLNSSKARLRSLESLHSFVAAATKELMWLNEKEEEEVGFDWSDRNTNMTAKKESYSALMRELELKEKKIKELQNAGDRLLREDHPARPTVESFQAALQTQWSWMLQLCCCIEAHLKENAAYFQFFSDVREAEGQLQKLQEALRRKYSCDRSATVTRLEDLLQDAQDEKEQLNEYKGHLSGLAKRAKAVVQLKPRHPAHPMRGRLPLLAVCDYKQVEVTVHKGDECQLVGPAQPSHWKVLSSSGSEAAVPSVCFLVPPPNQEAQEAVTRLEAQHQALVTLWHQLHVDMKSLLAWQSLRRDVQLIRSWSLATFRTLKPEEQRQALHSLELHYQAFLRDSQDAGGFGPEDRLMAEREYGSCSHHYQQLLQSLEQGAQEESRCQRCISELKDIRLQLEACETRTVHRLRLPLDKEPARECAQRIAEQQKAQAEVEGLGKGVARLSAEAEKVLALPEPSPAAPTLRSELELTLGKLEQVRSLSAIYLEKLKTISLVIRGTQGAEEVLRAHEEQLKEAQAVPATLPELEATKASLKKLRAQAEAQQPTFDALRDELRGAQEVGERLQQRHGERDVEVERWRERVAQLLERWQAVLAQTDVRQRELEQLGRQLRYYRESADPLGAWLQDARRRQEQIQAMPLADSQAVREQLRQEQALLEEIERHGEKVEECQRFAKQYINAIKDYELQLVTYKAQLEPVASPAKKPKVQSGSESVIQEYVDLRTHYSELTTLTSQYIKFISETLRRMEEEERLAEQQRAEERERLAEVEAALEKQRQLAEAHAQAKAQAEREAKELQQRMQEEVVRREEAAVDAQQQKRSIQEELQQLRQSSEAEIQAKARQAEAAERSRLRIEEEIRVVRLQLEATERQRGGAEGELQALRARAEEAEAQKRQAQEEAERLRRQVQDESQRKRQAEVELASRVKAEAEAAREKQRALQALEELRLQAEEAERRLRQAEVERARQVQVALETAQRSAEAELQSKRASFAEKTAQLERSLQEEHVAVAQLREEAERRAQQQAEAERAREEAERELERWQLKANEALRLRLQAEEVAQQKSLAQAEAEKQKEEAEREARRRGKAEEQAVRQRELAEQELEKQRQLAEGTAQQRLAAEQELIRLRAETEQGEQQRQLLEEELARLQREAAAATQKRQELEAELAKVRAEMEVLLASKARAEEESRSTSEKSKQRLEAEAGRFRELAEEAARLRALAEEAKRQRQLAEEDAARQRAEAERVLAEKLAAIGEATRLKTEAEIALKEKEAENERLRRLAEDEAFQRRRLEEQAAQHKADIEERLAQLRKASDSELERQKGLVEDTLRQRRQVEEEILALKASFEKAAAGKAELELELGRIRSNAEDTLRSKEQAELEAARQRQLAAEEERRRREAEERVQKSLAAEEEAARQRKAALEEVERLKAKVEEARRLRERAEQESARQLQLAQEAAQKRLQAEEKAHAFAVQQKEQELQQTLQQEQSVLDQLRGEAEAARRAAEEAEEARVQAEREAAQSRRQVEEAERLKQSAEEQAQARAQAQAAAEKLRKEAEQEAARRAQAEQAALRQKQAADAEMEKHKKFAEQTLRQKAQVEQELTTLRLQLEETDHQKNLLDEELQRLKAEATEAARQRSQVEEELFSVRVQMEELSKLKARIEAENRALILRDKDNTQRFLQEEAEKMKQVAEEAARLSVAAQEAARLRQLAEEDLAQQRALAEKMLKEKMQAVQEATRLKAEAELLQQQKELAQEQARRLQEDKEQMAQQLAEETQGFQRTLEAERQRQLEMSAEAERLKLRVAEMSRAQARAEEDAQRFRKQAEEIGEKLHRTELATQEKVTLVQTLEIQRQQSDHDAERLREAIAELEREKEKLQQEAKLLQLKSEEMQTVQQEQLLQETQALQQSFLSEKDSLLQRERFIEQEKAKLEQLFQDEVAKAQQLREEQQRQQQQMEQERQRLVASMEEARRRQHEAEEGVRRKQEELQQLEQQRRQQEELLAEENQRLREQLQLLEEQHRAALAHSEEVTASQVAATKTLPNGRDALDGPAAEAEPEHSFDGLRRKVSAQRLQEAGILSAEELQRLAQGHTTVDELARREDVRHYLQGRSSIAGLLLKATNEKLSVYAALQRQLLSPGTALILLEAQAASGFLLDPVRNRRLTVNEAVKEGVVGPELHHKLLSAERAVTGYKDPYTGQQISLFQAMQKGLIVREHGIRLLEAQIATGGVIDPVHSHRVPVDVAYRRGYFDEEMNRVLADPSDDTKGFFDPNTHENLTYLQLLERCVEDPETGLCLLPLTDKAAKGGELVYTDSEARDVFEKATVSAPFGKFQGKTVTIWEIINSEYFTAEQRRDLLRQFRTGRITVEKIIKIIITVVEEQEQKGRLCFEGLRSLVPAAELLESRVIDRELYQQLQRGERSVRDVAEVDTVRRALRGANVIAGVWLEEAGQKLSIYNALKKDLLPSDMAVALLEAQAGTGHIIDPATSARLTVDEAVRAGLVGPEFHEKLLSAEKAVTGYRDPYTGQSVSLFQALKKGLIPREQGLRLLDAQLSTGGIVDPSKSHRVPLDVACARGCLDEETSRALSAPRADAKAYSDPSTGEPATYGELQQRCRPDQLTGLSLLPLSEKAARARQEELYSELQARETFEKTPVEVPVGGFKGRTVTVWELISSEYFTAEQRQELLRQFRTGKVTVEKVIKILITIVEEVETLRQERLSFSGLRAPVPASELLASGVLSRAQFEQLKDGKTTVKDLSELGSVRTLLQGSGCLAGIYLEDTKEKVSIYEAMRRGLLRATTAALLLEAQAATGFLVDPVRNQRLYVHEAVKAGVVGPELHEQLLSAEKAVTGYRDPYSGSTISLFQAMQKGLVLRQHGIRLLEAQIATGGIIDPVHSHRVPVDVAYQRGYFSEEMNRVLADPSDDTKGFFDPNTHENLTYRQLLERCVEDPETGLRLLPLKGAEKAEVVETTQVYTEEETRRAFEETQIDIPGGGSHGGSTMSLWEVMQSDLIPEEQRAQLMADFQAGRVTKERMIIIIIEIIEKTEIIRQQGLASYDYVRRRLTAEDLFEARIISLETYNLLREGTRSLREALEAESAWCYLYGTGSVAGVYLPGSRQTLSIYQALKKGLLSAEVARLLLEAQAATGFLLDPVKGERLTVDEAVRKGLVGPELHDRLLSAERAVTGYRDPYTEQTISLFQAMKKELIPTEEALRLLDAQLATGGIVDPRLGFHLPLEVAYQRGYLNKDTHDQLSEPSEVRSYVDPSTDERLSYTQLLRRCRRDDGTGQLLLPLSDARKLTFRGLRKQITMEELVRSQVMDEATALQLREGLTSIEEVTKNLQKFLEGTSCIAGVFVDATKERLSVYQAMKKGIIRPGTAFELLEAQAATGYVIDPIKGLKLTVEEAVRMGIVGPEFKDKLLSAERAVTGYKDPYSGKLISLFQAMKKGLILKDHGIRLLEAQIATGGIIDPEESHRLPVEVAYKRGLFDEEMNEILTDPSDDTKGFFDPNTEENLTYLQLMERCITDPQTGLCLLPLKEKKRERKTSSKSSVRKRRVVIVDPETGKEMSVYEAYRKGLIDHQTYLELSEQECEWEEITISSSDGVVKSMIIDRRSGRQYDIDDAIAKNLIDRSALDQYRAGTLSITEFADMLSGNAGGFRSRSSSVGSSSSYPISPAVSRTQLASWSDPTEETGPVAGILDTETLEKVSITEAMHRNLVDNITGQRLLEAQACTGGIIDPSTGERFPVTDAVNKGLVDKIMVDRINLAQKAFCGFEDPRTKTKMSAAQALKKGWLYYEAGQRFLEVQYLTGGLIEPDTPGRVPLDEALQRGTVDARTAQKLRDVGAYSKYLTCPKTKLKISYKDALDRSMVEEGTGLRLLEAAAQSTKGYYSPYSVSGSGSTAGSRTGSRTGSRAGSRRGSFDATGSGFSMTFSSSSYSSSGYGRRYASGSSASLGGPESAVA
binder,measurement,setting,value
B1,specificity over normal ductal cells,[1],112 fold
same,specificity (ratio of clone 27/unrelated clone mean fluorescence),[2],141 ratio
